The values that follow come from the supplement of paper PMC9170038.

For the series, the system named is MS2 coat protein. Nature of the series: apparent KD of MS2 coat protein; designed switch direction (-1 OFF switch, 1 ON switch): -1; higher = weaker reporter binding. The gist of the method: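 SNAP-549-labelled MS2 coat protein was titrated, doubling from 0.7 or 1.5 nM to 3 µM, over designed RNA switches transcribed on Illumina chips by stalled E. coli RNA polymerase. Runs were done without input, with 200 uM small-molecule ligand, or with an oligonucleotide input. Apparent KD is the per-design median over clusters of curve-fitted normalised fluorescence.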

Where [1] appears, read: Eterna round: R95, input ligand: FMN 200 uM.
The mark [2] stands for this setting: Eterna round: R95, input ligand: microRNA oligo, concentration not stated.
Setting [3] is: Eterna round: R95, input ligand: none.
Setting [4] is: input ligand: microRNA oligo, concentration not stated.

Take “AGUAGUAGUAUCCGAUCCUACAUGAGGAUCACCCAUGUAGCUAGACGUGCACGCGAUGCGCGUCAGACUACCAGAUG [salish99_TOv1_r3_042] (puzzle: Sensor v3, turn-off variant 1)”: the “apparent KD of MS2 coat protein” value worked out at 184 nM under setting [1], 159 nM under setting [2] and 240 nM under setting [3].
For “AGUAGUAGUAUCCGAUCCUACAUGAGGAUCACCCAUGUAGCUAGACGUGCGCGCGAUGCUCGUCAGACUACCAGAUG [salish99_TOv1_r3_047] (puzzle: Sensor v3, turn-off variant 1)” the same measures were 159 nM, 198 nM and 276 nM.
The matching figures for “AGUAGUAGUAUCCGAUCCUACAUGAGGAUCACCCAUGUAGGUAGACGUGCACGCGAUGCUCGUCAGACUACCAGAUG [salish99_TOv1_r3_039] (puzzle: Sensor v3, turn-off variant 1)”: 12.1 nM, 11.4 nM and 13.4 nM.
Turning to “AGUAGUGGUAUCCGAUCCUACAUGAGGAUCACCCAUGUAGCUAGACGUGCACGCGAUGCUCGUCAGACUACCAGAUG [salish99_TOv1_r3_048] (puzzle: Sensor v3, turn-off variant 1)”, the “apparent KD of MS2 coat protein” value under setting [1] was 218 nM, the “apparent KD of MS2 coat protein” value under setting [2] turned out to be 221 nM and the “apparent KD of MS2 coat protein” value under setting [3] stood at 184 nM.
In the case of “AGUAGUUCAGGAUAUGAUGUUAAGUACAUGAGGAUCACCCAUGUAGGUCCUGGAUUUACAUCAGAAGGGAAUAACU [JR_Ex5_Sub083] (Eterna round: R97, puzzle: Exclusion 5)”, the “apparent KD of MS2 coat protein” value (input ligand: FMN 200 uM) was 60.4 nM and the “apparent KD of MS2 coat protein” value (input ligand: none) was 23.6 nM.
Turning to “AGUCAGGCGGUAGGAUAUCCAAACCGAGUGACCCUUUCAUAACAUGAGGAUCACCCAUGUCGGUGGGAGAAGGGCCGUAAGGCA [Mat - Exclusion NG 2 - Mod of JL - D66] (Eterna round: R96, puzzle: Exclusion NG 2)”, the “apparent KD of MS2 coat protein” value was 127 nM (input ligand: FMN 200 uM), 52.8 nM under setting [4] and 56.6 nM (input ligand: none).
For “AGUCAGGCGGUAGGAUAUCCAAAUCGAGUGACCCUCUCAUAACAUGAGGAUCACCCAUGUCGGUGGGAGAAGGGCCGUACGGCG [JL ViennaUCT Atra mod] (Eterna round: R96, puzzle: Exclusion NG 2)” the same measures were 108 nM, 53.8 nM and 47.8 nM.
In the case of “AGUCCGUCAGGAUAUGCAAUUGUGGACAUGAGGAUCACCCAUGUAACGUGGGCUUGGUUUGUAGAAGGGACGUGCA [EX5 #91] (Eterna round: R97, puzzle: Exclusion 5)”, the “apparent KD of MS2 coat protein” value by setting is: (input ligand: FMN 200 uM) 351 nM; (input ligand: none) 442 nM.
As for “AGUCCUAACACGAAAGUGUUAGUACAAUAAGCUUGUGAAACAUGAGGAUCACCCAUGUCCUCAUAAGCUCGUCUUAU [salish99_TOv2_r3_015] (Eterna round: R96, puzzle: Sensor v3, turn-off variant 2)”, the “apparent KD of MS2 coat protein” value by setting is: (input ligand: FMN 200 uM) 15.3 nM; under setting [4], 449 nM; (input ligand: none) 17.7 nM.
Regarding “AGUCCUAACACGAAAGUGUUAGUACAAUAAGCUUGUGAAACAUGAGGAUCACCCAUGUCCUCAUAAGCUCGUCUUAU [salish99_TOv2_r3_015] (puzzle: Sensor v3, turn-off variant 2)”, the “apparent KD of MS2 coat protein” value came to 16.6 nM under setting [1], 896 nM under setting [2] and 16.9 nM under setting [3].
On to “AGUCCUGGAGUUAGGAUAUGAAGUAUCACUGCACUUCAGAAGGGACUUGAGGAUCACCCAAGUAGCCGUGAGGG [salish99_bmod_ex4_r4_003] (Eterna round: R97, puzzle: Brourd's mod of Exclusion 4)”, for which the “apparent KD of MS2 coat protein” value reads like this: (input ligand: FMN 200 uM) 108 nM; (input ligand: none) 56.7 nM.
Turning to “AGUCCUGGAGUUAGGAUAUGGAGUAUCACUGCGCUUCAGAAGGGACUUGAGGAUCACCCAAGUAGCCGUGAGGG [salish99_bmod_ex4_r4_005] (Eterna round: R97, puzzle: Brourd's mod of Exclusion 4)”, the “apparent KD of MS2 coat protein” value amounted to 98.5 nM (input ligand: FMN 200 uM) and 59.4 nM (input ligand: none).
For “AGUCCUGGAGUUAGGAUAUGGAGUAUCGCUGCGCUUCAGAAGGGACUUGAGGAUCACCCAAGUAGCCGUGAGGG [salish99_bmod_ex4_r4_006] (Eterna round: R97, puzzle: Brourd's mod of Exclusion 4)” the same measures were 82.9 nM and 60.2 nM.
The matching figures for “AGUCGAAAGACCCACAUGGACAUGAGGAUCACCCAUGUACAAGCCUUUUGCUCGUCACUAUCGUCAAAAGACGAUAG [Omei Mir Offv1 A2] (Eterna round: R97, puzzle: Sensor, turn-off variant 1)”: 30.8 nM and 41.8 nM.
Turning to “AGUCGGCGAGGAUAUACAUGAGGAUCACCCAUGUGAGAGAUAAAAGUGAGUUAGACAAGUAGAAGGCGCUGACA [JL Lego Mod 9] (Eterna round: R96, puzzle: Exclusion 3)”, under setting [4], the “apparent KD of MS2 coat protein” value is 46.4 nM.
On to “AGUCGGCGAGGAUAUACAUGAGGAUCACCCAUGUGAUAGAGUGCACGCGUACGUGUAUGUAGAAGGCGCUGACA [Mat - Exclusion 3 - Mod of JL D97] (puzzle: Exclusion 3)”, for which the “apparent KD of MS2 coat protein” value under setting [2] was found to be 61.4 nM.
For “AGUCGGUCAGGAUAUGCAAUCGUGGACAUGAGGAUCACCCAUGUAACGUGGGCCUGGUUUGUAGAAGGGACGAGCA [EX5 #87] (Eterna round: R97, puzzle: Exclusion 5)”, the “apparent KD of MS2 coat protein” value came out at 66 nM (input ligand: FMN 200 uM) and 61.2 nM (input ligand: none).
The matching figures for “AGUCGGUCAGGAUAUGCAAUUGUGGACAUGAGGAUCACCCAUGUAACGUGGGCCUGGUUUGUAGAAGGGACGUGCA [EX5 #89] (Eterna round: R97, puzzle: Exclusion 5)”: 105 nM and 89 nM.
“AGUGCGUAUGUGAGGAUAUGCUGGUCCUUGGAUCGGCAGAAGGCACAUGAGGAUCACCCAUGUGGUGUCGUACA [salish99_Bmod_ex4_085] (puzzle: Brourd's mod of Exclusion 4)”: the “apparent KD of MS2 coat protein” value is, setting by setting: under setting [1], 21.5 nM; under setting [2], 257 nM; under setting [3], 263 nM.
As to “AGUGUAGCAGGAUAUACAUGAGGAUCACCCAUGUUUCCGGGACCAGAGCAUCUGCCAUGUAGAAGGGCUGCCUU [Eternabot (L2) Solution 80] (Eterna round: R97, puzzle: Exclusion 3)”, the “apparent KD of MS2 coat protein” value is, setting by setting: (input ligand: FMN 200 uM) 275 nM; (input ligand: none) 225 nM.
For “AGUGUGAGGCAGGAUAUGCAAUAUGUAAGUAAUGCAGAAGGGUCUACAUGAGGAUCACCCAUGUGUGCGGUUGA [Ex6 #10] (Eterna round: R97, puzzle: Exclusion 6)” the same measures were 282 nM and 192 nM.
The matching figures for “AGUGUGUGGCAGGAUAUUCUAAUCGUGAGGAGGGAAGAAGGGUCUACAUGAGGAUCACCCAUGUAAGCGGUUGA [Ex6 #42] (Eterna round: R97, puzzle: Exclusion 6)”: 259 nM and 140 nM.
The matching figures for “AGUGUGUGGCAGGAUAUUCUAAUGAUUAGGACAGAAGAAGGGUCUACAUGAGGAUCACCCAUGUAAGCGGUUGA [Ex6 #38] (Eterna round: R97, puzzle: Exclusion 6)”: 211 nM and 82.3 nM.
On to “AGUGUGUUAGGAUAUCGGAUAUGCUGGAGGAGGUGGAUUUACGAGAAGGAACAUGAGGAUCACCCAUGUAGGAG [JR_Exclu4_Sub048] (puzzle: Exclusion 4)”, for which the “apparent KD of MS2 coat protein” value under setting [2] came to 36.2 nM.
In the case of “AGUUACUACAAGCUUUGGGACAUGAGGAUCACCCAUGUUCGUCUUAUUGUAGUAGGUACGCUGACGUACCUACUACA [Mat - Sensor v3 - turn-off var 1 - JL Mod - D7] (puzzle: Sensor v3, turn-off variant 1)”, the “apparent KD of MS2 coat protein” value runs as follows: under setting [1], 14.8 nM; under setting [2], 39.6 nM; under setting [3], 13.8 nM.
On to “AGUUGGCAAGGAUAUACAUGAGGAUCACCCAUGUGAAAUUAUAGUGAGGAAAUGAAAAGUAGAAGGUGCUGACA [Mod of Mat 3 - Jieux - Exclusion 3] (Eterna round: R97, puzzle: Exclusion 3)”, for which the “apparent KD of MS2 coat protein” value came to 114 nM (input ligand: FMN 200 uM) and 30.9 nM (input ligand: none).
In the case of “AGUUGGCGAGGAUAUACAUGAGGAUCACCCAUGUGAAAUUAAAGUGAGGAAAUGAAAAGUAGAAGGCGCUGACA [Mat - Exclusion 3 - Mod of Salish D56] (puzzle: Exclusion 3)”, the “apparent KD of MS2 coat protein” value runs as follows: under setting [1], 277 nM; under setting [2], 31.7 nM; under setting [3], 46.7 nM.
In the case of “AGUUGGCGAGGAUAUACAUGAGGAUCACCCAUGUGAAAUUAAAGUGAGGAAAUGAAAAGUAGAAGGCGCUGACA [Mod of Mat - Jieux - Exclusion 3] (Eterna round: R97, puzzle: Exclusion 3)”, the “apparent KD of MS2 coat protein” value came out at 686 nM (input ligand: FMN 200 uM) and 67.7 nM (input ligand: none).
On to “AGUUGGCGAGGAUAUACAUGAGGAUCACCCAUGUGAAUAAUAAUAGUGAGGAAGAAAAGUAGAAGGCGCUGACA [Mat - Exclusion 3 - Mod of Salish D35] (puzzle: Exclusion 3)”, for which the “apparent KD of MS2 coat protein” value under setting [2] amounted to 46.1 nM.
Take “AGUUGGCGAGGAUAUACAUGAGGAUCACCCAUGUGAGAGAGACUAGUGAGGUCGAUUAGUAGAAGGCGCUGACA [Mat X3R4 m11] (Eterna round: R97, puzzle: Exclusion 3)”: the “apparent KD of MS2 coat protein” value (input ligand: FMN 200 uM) is 455 nM and the “apparent KD of MS2 coat protein” value (input ligand: none) came out at 29.3 nM.
